Measurements taken from publication PMC9141661.

Key:
[1] = target: Angiotensin-converting enzyme 2 (ACE2) ectodomain, Fc-tagged (human) (UniProt Q9BYF1); test: BLI
[2] = target: Angiotensin-converting enzyme 2 (ACE2) ectodomain, Fc-tagged (human) (UniProt Q9BYF1); test: latex nanoparticle-enhanced turbidimetry

Angiotensin-converting enzyme 2 (ACE2) ectodomain, Fc-tagged (human), sequence (Q9BYF1 18-740): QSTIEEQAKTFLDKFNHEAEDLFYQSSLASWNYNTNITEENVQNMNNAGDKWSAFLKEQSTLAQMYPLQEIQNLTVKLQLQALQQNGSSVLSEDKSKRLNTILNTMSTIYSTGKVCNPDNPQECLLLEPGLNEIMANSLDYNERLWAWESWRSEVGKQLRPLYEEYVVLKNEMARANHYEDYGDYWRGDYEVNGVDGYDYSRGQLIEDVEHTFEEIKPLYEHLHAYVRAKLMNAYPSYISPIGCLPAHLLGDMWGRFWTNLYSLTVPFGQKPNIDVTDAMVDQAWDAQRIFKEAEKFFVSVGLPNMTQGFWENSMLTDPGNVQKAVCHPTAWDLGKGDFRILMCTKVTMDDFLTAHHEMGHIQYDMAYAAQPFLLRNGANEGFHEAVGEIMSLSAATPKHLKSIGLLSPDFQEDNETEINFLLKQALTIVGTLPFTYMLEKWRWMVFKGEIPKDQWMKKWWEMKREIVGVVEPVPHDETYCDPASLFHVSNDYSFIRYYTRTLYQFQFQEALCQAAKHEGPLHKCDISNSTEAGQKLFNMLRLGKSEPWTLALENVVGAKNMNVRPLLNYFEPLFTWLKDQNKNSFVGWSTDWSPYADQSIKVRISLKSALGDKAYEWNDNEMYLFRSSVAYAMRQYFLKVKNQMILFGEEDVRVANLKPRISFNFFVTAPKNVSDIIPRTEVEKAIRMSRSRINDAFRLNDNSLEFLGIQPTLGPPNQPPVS

“Human milk lactoferrin (natural protein)” gave a Kd [1] of 27.6 µM, a koff [1] of 0.461 s⁻¹ and a kon [1] of 16700 M⁻¹ s⁻¹. The apparent Kobs (inhibition of RBD-ACE2 complex formation, initial rates) [2] was 6.3 µM.
